Assay [1] concerns the target T1, human OX40 expressed on cells (human, UniProt P43489 29-277).
T1 sequence: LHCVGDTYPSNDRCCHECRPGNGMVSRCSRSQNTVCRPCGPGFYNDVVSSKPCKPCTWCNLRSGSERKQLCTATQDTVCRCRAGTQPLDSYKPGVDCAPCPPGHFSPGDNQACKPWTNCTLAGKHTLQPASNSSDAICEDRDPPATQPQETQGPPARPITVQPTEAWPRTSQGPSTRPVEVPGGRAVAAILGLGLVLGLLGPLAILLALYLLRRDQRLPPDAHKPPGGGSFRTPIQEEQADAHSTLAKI
The assay is described as follows: cell-based or functional assay.

Assay [2] concerns the target T1, human OX40 expressed on cells. The assay is described as follows: cell-based or functional assay. The source holds these as a separate data set.
Assay [3] shares this target. Briefly: competition by flow cytometry on Jurkat-NF-κB-huOX40 cells; competitor: ALEXA FLUOR 647-labeled Hu3738 at 2 µg/mL. As for the experimental part:
Analysis was performed by flow cytometry.
(In general: In flow cytometry, cells or beads pass a laser one at a time.)

Assay [4] shares this target. The assay is described as follows: cell-based or functional assay. The source holds these as a separate data set.
Assay [5] shares this target. The assay is described as follows: flow cytometry on Jurkat NF-κB reporter cells expressing human OX40. Here is the method:
A Jurkat NF-κB reporter cell line expressing human OX40 protein was cultured in DMEM containing 10% FBS and penicillin/streptomycin (pen/strep). For the binding assay, each cell line was resuspended at 5 million cells per mL. 50 μL (250,000 cells)/well were transferred to each well of a 500 μL polypropylene 96-well plate (Nunc). A 2× stock of test anti-OX40 antibody or isotype control mAb was prepared in a separate dilution plate at 666, 333, 111, 37.03, 12.34, 4.11, 0.457, 0.152, 0.0508, 0.0169, 0.00564 nM in culture media. Each antibody (50 μL/well) was transferred into respective wells of the assay plate. Cells were incubated with the test anti-OX40 antibody or isotype control antibodies for 30 minutes at 4° C. and washed twice with 250 μL/well of PBS by centrifuging at 800 rpm for 3 minutes. Bound antibody was detected with Cy5-Donkey anti-human IgG (H+L) (Jackson ImmunoResearch) diluted to 2 μg/mL (50 μL/well) in PBS for 30 minutes at 4° C. Cells were washed once with 250 μL/well of PBS, resuspended in PBS containing 1% Formaldehyde and analyzed on a dual laser FACSCalibur (Becton Dickinson).

The target in assay [6] is T2, recombinant soluble human OX40 ECD (residues 1-216) (human, UniProt P43489 29-216).
T2 construct: Purchased from Creative Biomart and further purified by gel filtration; also called recombinant extracellular domain of human OX40
T2 sequence: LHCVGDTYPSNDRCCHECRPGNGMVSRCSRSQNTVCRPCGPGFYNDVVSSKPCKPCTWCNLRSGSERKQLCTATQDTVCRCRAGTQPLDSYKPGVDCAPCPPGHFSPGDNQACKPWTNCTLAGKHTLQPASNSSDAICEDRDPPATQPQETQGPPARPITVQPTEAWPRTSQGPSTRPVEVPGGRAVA
The assay is described as follows: SPR (Biacore T200, 25 °C), antibody captured by anti-Fc, OX40 ECD as analyte. As for the experimental part:
The binding kinetics of an anti-OX40 antibody to recombinant soluble OX40 ECD (extracellular domain) were determined by surface plasmon resonance-based measurements made on a Biacore T200 instrument (GE Healthcare) at 25° C. using an anti-Fc capture assay approach. Recombinant extracellular domains (ECDs) of human OX40 (residues 1-216) and rhesus macaque OX40 (residues 28-214) were purchased (Creative Biomart) and further purified by gel filtration using Superdex200 (GE Healthcare) in 10 mM 4-(2-hydroxyethyl)-1-piperazineethanesulfonic acid (HEPES), pH 7.4, 150 mM NaCl, 3 mM ethylenediaminetetraacetic acid (EDTA). Rhesus macaque (Macaca mulatta) OX40 is identical to cynomolgus monkey (Macaca fascicularis) OX40 (SEQ ID NO:2) at the amino acid level. Chip preparation and binding kinetic measurements were made in the assay buffer HBS-EP+(10 mM HEPES, pH 7.4, 150 mM NaCl, 3 mM EDTA, 0.05% Tween 20). For anti-Fc capture chip preparation, approximately 2000 Resonance Units (RU) of goat anti-human IgG Fc polyclonal antibody (Thermo Fisher Scientific Inc.), diluted to 25 μg/mL in 10 mM sodium acetate (pH 4.5), was directly immobilized across a CMS biosensor chip using a standard amine coupling kit according to manufacturer's instructions and procedures. Unreacted moieties on the biosensor surface were blocked with ethanolamine. For binding kinetics measurements each assay cycle consisted of the following steps: 1) capture of test anti-OX40 antibody on test surface only; 2) analyte injection (OX40 ECD or buffer only) over both reference and test surface, 240 μL at 80 μL/min, after which the dissociation was monitored for 900 seconds at 80 μL/min; 3) regeneration of capture surface by 10 mM Glycine-HCl, pH 1.5 injections over both reference and test surface. During the assay, all measurements were referenced against the capture surface alone (i.e., with no captured test antibody) and buffer-only injections were used for double referencing. OX40 injections ranged in concentration from 900 nM or 300 nM to 11.11 nM in a randomized 9- or 3-fold dilution series, respectively. Data were processed and fitted globally to a 1:1 binding model using Biacore T200 Evaluation software to determine the binding kinetic rate constants, kₐ (M⁻¹s⁻¹) and kd (s¹), and the equilibrium dissociation constant KD (M).
A general note: In SPR one partner is held on a chip, and binding of the other changes the refractive index at the surface.

For assay [7], the target named is T1, human OX40 expressed on cells. The assay is described as follows: flow cytometry competition on human OX40-expressing Jurkat cells; OX40L titrated against 0.2 µg/mL Hu3738 (competitor).

From patent publication US20210017289A1 (AbbVie / Abbott, published 2021) come the findings set out here.

“And” between values parts separate entries of the source, which are not always exact repeats. Equal entries are not always repeated. Where two headings read alike, the source gives them in different places. Bounds are passed on as bounds.

Isotype control antibody: in assay [1], the EC50 With Cross-linker (nM), NF-κB signaling is above 100 µg/mL and the EC50 Without Cross-linker (nM), NF-κB signaling was above 100 µg/mL.

B1: 1A7 (antibody, human IgG1, V domains shown)
VH: EVQLQQSGPELVKPGASVKISCKASGYTFTDSYMSWVKQSHGKTLEWIGDMYPDNGDSSYNQKFREKVTLTVDKSSTTAYMEFRSLTSEDSAVYYCVLAPRWYFSVWGTGTTVTVSS
VL: DIQMTQTTSSLSASLGDRVTISCRASQDISNYLNWYQQKPDGTVKLLIYYTSRLRSGVPSRFSGSGSGKDYFLTISNLEQEDVAAYFCQQGHTLPPTFGGGTKLEIK
notes: 2015/0307617; also called literature anti-OX40 antibody 1A7
In the case of B1, in assay [2], the “EC50 With Cross-linker (nM), NF-κB signaling” value (“EC50 With Cross-linker (nM)” below) was 0.066 nM and the “EC50 Without Cross-linker (nM), NF-κB signaling” value (shortened to “EC50 Without Cross-linker (nM)”) was above 100 µg/mL. Further, the “IC50 (read off the curve)” value in assay [3] is around 0.6 µg/mL.

B2: 18D8 (antibody, human IgG1, V domains shown)
VH: EVQLVESGGGLVQPGRLSRLSCAASGFTFDDYAMHWVRQAPGKGLEWVSGISWNSGSIGYADSVKGRFTISRENAKNSLYLQMNSLRAEDTALYYCAKDQSTADYYFYYGMDVWGQGTTVTVSS
VL: EIVVTQSPATLSLSPGERATLSCRASQSVSSYLAWYQQKPGQAPRLLIYDASNRATGIPARFSGSGSGTDFTLTISSLEPEDFAVYYCQQRSNWPTFGQGTKVEIK
notes: also called literature anti-OX40 antibody 18D8
By EC50 is commonly meant the concentration at which the effect is half-maximal. Read a high EC50 as a less potent agent. By Kd is commonly meant the equilibrium constant for the complex coming apart. What is called koff is the rate constant with which the complex falls apart. Consider B2, for which, in assay [4], the “EC50 With Cross-linker (nM)” value stood at 0.5 nM and the “EC50 Without Cross-linker (nM)” value was above 100 µg/mL. The EC50 in assay [5] came out at 0.258 µg/mL. In addition, in assay [6], the Kd is 9.1 nM and the koff came out at 0.11 s⁻¹.

B3: 106-222 (antibody, human IgG1, V domains shown)
VH: QVQLVQSGSELKKPGASVKVSCKASGYTFTDYSMHWVRQAPGQGLKWMGWINTETGEPTYADDFKGRFVFSLDTSVSTAYLQISSLKAEDTAVYYCANPYYDYVSYYAMDYWGQGTTVTVSS
VL: DIQMTQSPSSLSASVGDRVTITCKASQDVSTAVAWYQQKPGKAPKLLIYSASYLYTGVPSRFSGSGSGTDFTFTISSLQPEDIATYYCQQHYSTPRTFGQGTKLEIK
notes: 2013/0280275
Turning to B3, in assay [4], the “EC50 With Cross-linker (nM)” value amounted to 0.63 nM and the “EC50 Without Cross-linker (nM)” value was above 100 µg/mL. Moreover, the “IC50 (read off the curve)” value in assay [3] was around 1 µg/mL.

B4: 119-122 (antibody, human IgG1, V domains shown)
VH: EVQLVESGGGLVQPGGSLRLSCAASEYEFPSHDMSWVRQAPGKGLELVAAINSDGGSTYYPDTMERRFTISRDNAKNSLYLQMNSLRAEDTAVYYCARHYDDYYAWFAYWGQGTMVTVSS
VL: EIVLTQSPATLSLSPGERATLSCRASKSVSTSGYSYMHWYQQKPGQAPRLLIYLASNLESGVPARFSGSGSGTDFTLTISSLEPEDFAVYYCQHSRELPLTFGGGTKVEIK
Turning to B4, in assay [4], the “EC50 With Cross-linker (nM)” value amounted to 0.34 nM and the “EC50 Without Cross-linker (nM)” value was above 100 µg/mL.

B5: soluble human OX40 ligand (OX40L) (ligand)
chain: QVSHRYPRIQSIKVQFTEYKKEKGFILTSQKEDEIMKVQNNSVIINCDGFYLISLKGYFSQEVNISLHYQKDEEPLFQLKKVRSVNSLMVASLTYKDKVYLNVTTDNTSLDDFHVNGGELILIHQNPGEFCVL
notes: also called CD252; TNFSF4
For orientation: IC50 means the point on the concentration scale where inhibition reaches its midpoint. B5: in assay [7], the IC50 is 0.067 nM and 0.01 µg/mL.

B6: Hu3739 (antibody, V domains shown)
VH: EVQLVQSGAEVKKPGSSVKVSCKASGFNIKDTYMHWVRQAPGQGLEWIGRIDPANGNTKYDPKFQGRATITADTSTNTAYMELSSLRSEDTAVYYCARGGPAWFVYWGQGTLVTVSS
VL: DIQMTQSPSSLSASVGDRVTITCRASQDISNYLNWYQQKPGKAPKLLIYYTSRLRSGLPSRFSGSGSGTDYTLTISSLQPEDFATYYCQQGNTLPWTFGGGTKVEIKR
notes: Humanized antibody; also called Hu3739 VH.1b / Hu3739 VL.1b
B6: in assay [6], the Kd was determined as 360 nM and the koff was found to be 0.016 s⁻¹.

B7: Hu3741 (antibody, V domains shown)
VH: EVQLVESGGGLVQPGGSLRLSCAVSGFSLTSYGVHWVRQAPGKGLEWLGVIWSGGSTDYNAAFISRLTISKDNSKSTVYLQMNSLRAEDTAVYYCAREEFDYWGQGTTVTVSS
VL: DIQMTQSPSSLSASVGDRVTITCRASQDISNYLNWFQQKPGKAPKLLIYYTSRLHSGVPSRFSGSGSGTDYTLTISSLQPEDFATYYCQQGYTLPPTFGGGTKVEIKR
notes: Humanized antibody; also called Hu3741 VH.2b / Hu3741 VL.1c
With B7, in assay [6], the Kd stood at 3000 nM and the koff came out at 0.31 s⁻¹.
